Assay results taken from the RNAGym collection of RNA variant scans (doi:10.7554/elife.80360).

B1: HDV Ribozyme (parent)
chain: GGCCGGCAUGGUCCCAGCCUCCUCGCUGGCGCCGGCUGGGCAACAUUCCGAGGGGACCGUCCCCUCGGUAAUGGCGAAUGGGACCCA

Variants of: B1
Assay: self-cleavage, relative activity (ratio to wild type); higher = more cleavage; co-transcriptional

Point of comparison: GGCCGGCAUGGUCCCAGCCUCCUCGCUGCCGCCGGCUGGGCAACAUUGCGAGGGGACCGUCCCCUCGGUAAUGGCGAAUGGGACCCA [G29C C48G], self-cleavage 0.095. Against it:
- GGCCGGCAUGGUCCCAGCCUCCUCGCUGCCGCCGGAUGGGCAACAUUCCGAGGGGACCGUCCCCUCGGUAAUGGCGAAUGGGACCCA [G29C C36A] — lower, 0.0297
- GGCCGGCAUGGUCCCAGCCUCCUCGCUGCCGCCGGCUGGGCAACAUUCCGAGGGGACCGUCCCCUCGGUAAUGACGAAUGGGACCCA [G29C G74A] — lower, 0.0733
- GGCCGGCAUGGUCCCAGCCUCCUCGCUGCCGCCGGCUGGGCAACAUUCCGAGGGGACCGUCCCCUCGGUAAUGUCGAAUGGGACCCA [G29C G74U] — lower, 0
- GGCCGGCAUGGUCCCAGCCUCCUCGCUGCCGCCGGCUGGGCAACAUUCCGAGGGGACCGUCCCCUCGGUAAUGGCGAAUGGGACCGA [G29C C86G] — higher, 0.133
- GGCCGGCAUGGUCCCAGCCUCCUCGCUGCCGCCGGCUGGGCAACAUUCCGUGGGGACCGUCCCCUCGGUAAUGGCGAAUGGGACCCA [G29C A51U] — lower, 0.0308
- GGCCGGCAUGGUCCCAGCCUCCUCGCUGCCGCCGGCUGGGCAACAUUCCGAGGGGACCGUCCCCUCGAUAAUGGCGAAUGGGACCCA [G29C G68A] — higher, 0.163
- GGCCGGCAUGGUCCCAGCCUCCUCGCUGCCGCCGGCUGGGCAACAUUCAGAGGGGACCGUCCCCUCGGUAAUGGCGAAUGGGACCCA [G29C C49A] — higher, 0.222
- GGCCGGCAUGGUCCCAGCCUCCUCGCUGCCGCCGGCUGGGCAACAUUCUGAGGGGACCGUCCCCUCGGUAAUGGCGAAUGGGACCCA [G29C C49U] — higher, 0.128
- GGCCGGCAUGGUCCCAGCCUCCUCGCUGCCUCCGGCUGGGCAACAUUCCGAGGGGACCGUCCCCUCGGUAAUGGCGAAUGGGACCCA [G29C G31U] — lower, 0.0755
- GGCCGGCAUGGUCCCAGCCUCCUCGCUGCCGCCGGCUGGGCAACAUUCCGAGGGGACCGUACCCUCGGUAAUGGCGAAUGGGACCCA [G29C C61A] — lower, 0.0791
- GGCCGGCAUGGUCCCAGCCUCCUCGCUGCCGCCGGCUCGGCAACAUUCCGAGGGGACCGUCCCCUCGGUAAUGGCGAAUGGGACCCA [G29C G38C] — lower, 0.0489
- GGCCGGCAUGGUCCCAGCCUCCUCGCUGCCGCCGUCUGGGCAACAUUCCGAGGGGACCGUCCCCUCGGUAAUGGCGAAUGGGACCCA [G29C G35U] — lower, 0.0554
- GGCCGGCAUGGUCCCAGCCUCCUCGCUGCCGCCGGCUGGGCAACAUUCCGAGGGGACCGUCCCCUCGGUAAUGGCGAAUGGGACGCA [G29C C85G] — higher, 0.0978
- GGCCGGCAUGGUCCCAGCCUCCUCGCUGCCGCCGGCUGGGCAACAUUCCGAGGGGACCGUCCCCUCGGUAAUGGCGAAUGGGACACA [G29C C85A] — higher, 0.104
- GGCCGGCAUGGUCCCAGCCUCCUCGCUGCAGCCGGCUGGGCAACAUUCCGAGGGGACCGUCCCCUCGGUAAUGGCGAAUGGGACCCA [G29C C30A] — higher, 0.156
- GGCCGGCAUGGUCCCAGCCUCCUCGCUGCCGCCGGCUGGGCAACAUUCCGAUGGGACCGUCCCCUCGGUAAUGGCGAAUGGGACCCA [G29C G52U] — lower, 0
- GGCCGGCAUGGUCCCAGCCUCCUCGCUGCCGCCGGCUGGGCAACAUUCCGAGGGGACCGUCCCCUCGGUAAUGGCGAAUGUGACCCA [G29C G81U] — lower, 0
- GGCCGGCAUGGUCCCAGCCUCCUCGCUGCCGCCGGCUGGGCAACAUUCCGAGGGGACCGUCCCAUCGGUAAUGGCGAAUGGGACCCA [G29C C64A] — lower, 0.0755
- GGCCGGCAUGGUCCCAGCCUCCUCGCUGCCGCCGGCUGGGCAACAUUCCGAGGGGACCGUCCCGUCGGUAAUGGCGAAUGGGACCCA [G29C C64G] — the same, 0.095
- GGCCGGCAUGGUCCCAGCCUCCUCGCUGCCGCCGGCUGGGCAAUAUUCCGAGGGGACCGUCCCCUCGGUAAUGGCGAAUGGGACCCA [G29C C44U] — lower, 0
- GGCCGGCAUGGUCCCAGCCUCCUCGCUGCCGCCGGCUGGGCAACAUUCCGAGGGGACCGUCCCCUCGGUAAUGGCGAGUGGGACCCA [G29C A78G] — lower, 0
- GGCCGGCAUGGUCCCAGCCUCCUCGCUGCCGCCGGCUGGGCAACAUUCCGAGGGAACCGUCCCCUCGGUAAUGGCGAAUGGGACCCA [G29C G55A] — higher, 0.166
- GGCCGGCAUGGUCCCAGCCUCCUCGCUGCCGCCGGCUGGGCAACAUUCCGAGGGUACCGUCCCCUCGGUAAUGGCGAAUGGGACCCA [G29C G55U] — lower, 0.0396
- GGCCGGCAUGGUCCCAGCCUCCUCGCUGCCGCCGGCUGGGCAACAUUCCGAGGGGACCGUCCCCUCGGUAAUGGCCAAUGGGACCCA [G29C G76C] — lower, 0.0386
- GGCCGGCAUGGUCCCAGCCUCCUCGCUGCCGCCGGCUGGGCAACAUUCCGAGGGGACCGUCCCCUCGGUAAUGGCUAAUGGGACCCA [G29C G76U] — higher, 0.119
- GGCCGGCAUGGUCCCAGCCUCCUCGCUGCCGCCGGCUGGGCAACAUUCCGAGGGGACCGUCCCCUCGGUAAUGGCGGAUGGGACCCA [G29C A77G] — higher, 0.135
- GGCCGGCAUGGUCCCAGCCUCCUCGCUGCCGCCGGCUGGCCAACAUUCCGAGGGGACCGUCCCCUCGGUAAUGGCGAAUGGGACCCA [G29C G40C] — higher, 0.18
- GGCCGGCAUGGUCCCAGCCUCCUCGCUGCCGCCGGCUGGGCAACAUUCCGAGGGGACCGUCCCCUGGGUAAUGGCGAAUGGGACCCA [G29C C66G] — lower, 0
- GGCCGGCAUGGUCCCAGCCUCCUCGCUGCCGCCGGCUGGGCAACAUUCCGAGGGGACCGUCCCCUAGGUAAUGGCGAAUGGGACCCA [G29C C66A] — lower, 0.0475
- GGCCGGCAUGGUCCCAGCCUCCUCGCUGCCGGCGGCUGGGCAACAUUCCGAGGGGACCGUCCCCUCGGUAAUGGCGAAUGGGACCCA [G29C C32G] — lower, 0.0639
- GGCCGGCAUGGUCCCAGCCUCCUCGCUGCCGCCGGCUGGGCAACAUUCCGAGGGGACCGUCCCCUCGGUAAUGGCGAAUGGAACCCA [G29C G82A] — higher, 0.117
